Broadly, the kcat is the maximal rate divided by the concentration of active sites. For orientation: Km means the concentration of substrate that gives half-maximal velocity. One may read the Vmax as the rate approached at saturating substrate.

The text below walks through data of patent publication US20220325265A1, “GLUCOCEREBROSIDASE MUTANTS” (Hoffmann-la Roche Inc., priority 2019, published 2022).

Several values for one entry are separate records, joined by “and”; a condition that tells them apart may be missing. Identical values can stand only once.

Data set [1] can be described thus: Thermal shift assay via nanoDSF measurement (unfolding temperature). In kind it is physicochemical. The settings on record: Prometheus NT.Plex, 3° C./min, 0.06-0.5 mg/ml. The procedure: The thermal shift assay was performed via nanoDSF (differential scanning fluorimetry) measurements using Prometheus NT.Plex nanoDSF (NanoTemper Technologies). The measurement was initialized using the software PR.ThermoControl. Prometheus can precisely characterize samples by measuring the thermal unfolding, chemical denaturation and aggregation within one single run (NanoTemper Technologies, 2019). By gradually heating the sample until reaching 95° C., the protein unfolds. Thereby, the chemical environment of tryptophan residues changes (change in intrinsic tryptophan fluorescence of protein due to more aqueous environment), causing a red-shift in fluorescence (tryptophan fluorescence emission shift). By plotting the fluorescence ratio 350/330 nm against the temperature, the melting temperature Tm can be determined. Calculating the first derivative of raw data gives a peak curve with its maximum indicating the unfolding temperature Tm.
For the sample preparation, a concentration of 0.5 mg/ml was adjusted for the hGCase mutants. For variant I5N and R495HS2, protein concentrations of 0.075 mg/ml (I5N) and 0.06 mg/ml (R495HS2) were applied due to low protein yields. 15 μl total sample volume was uptaken in each capillary of the capillary rack (Prometheus NT.Plex Capillary Chips, NanoTemper) and placed in the device. The excitation power was adjusted to 20-80%, depending on the applied protein concentration. The gradually heating was set to 3° C./min until reaching 95° C. (20° C. was set as starting temperature). The evaluation and calculation of the first derivative was done using the NanoTemper PR.ThermoControl software, the final evaluation and graphing was done using the PR.StabilityAnalysis software.
On the one hand, a successively increasing temperature gradient was applied to measure melting temperatures of protein molecules via nanoDSF (differential scanning fluorimetry) measurement using Prometheus NT.Plex (NanoTemper Technologies, 2019). The sample is gradually heated by increasing the temperature until reaching 95° C. Thereby, the protein unfolds and tryptophan residues experience a change in chemical environment (exposure to a more aqueous environment), which changes the intrinsic tryptophan fluorescence of the protein, causing a red shift in the fluorescent spectrum (350/330 nm=tryptophan fluorescence emission shift) (Schubert, 2015). In FIG. 1, typical melting curves of such an unfolding experiment are shown.
In the upper section of the graphs (FIGS. 1 (A) and (B)), the raw data (progression curves) measured with nanoDSF is plotted, indicating the shift in the fluorescence ratio 350/330 nm during the course of the measurement with increasing temperature. The calculation of the first derivative, giving peak curves (lower section of graphs in (A) and (B)), was done according to default settings of the Software PR.StabilityAnalysis (table 2). Peak maxima (thermal unfolding transition midpoint) indicate the unfolding temperature Tm, where half of the proteins are unfold (Schubert, 2015).
On the technique in general: DSF heats the sample and reads unfolding from a dye or from intrinsic fluorescence.

Data set [2] in a line: Determination of the kinetic parameters (Michaelis-Menten) with artificial substrate. The format is biochemical. The settings on record: for kcat: protein concentration used: 25 nM; for Km / Vmax: res-β-glc 4-500 μM, 25 nM protein. The procedure:
The kinetic parameters were examined using the artificial substrate resorufin-β-glucopyranoside (Sigma-Aldrich). For the determination, final concentrations of substrate ranging from 4-500 μM were tested. The assay followed the activity assay instructions in section 2.3.5. 25 nM final protein concentration was used for each construct. The incubation time was set to 30 min to ensure measurements in the linear signal range. The kinetics were evaluated and plotted according to Michaelis-Menten (Cornish-Bowden, 2013; Johnson, 2015). KM, Vmax was calculated by GraphPad Prism7 applying the Michaelis-Menten fit equation provided by the program. The equation model follows: […]
with: • KM: Michaelis-Menten constant [μM] • Vmax: maximum velocity of reaction [μM/min]
The kinetic parameter kcat is defined as the catalytic constant, representing the turnover number of substrate to product per time unit (here per second) (Eisenthal et al., 2007). kcat can be calculated as follows: […]
with: • kcat: turnover number [min-1] • Vmax: maximum velocity of reaction [μM/min] • [E]tot.: total enzyme concentration [nM]
Another kinetic key parameter to describe the catalytic efficiency of enzymes is the parameter kcat/KM, measured in [μM−1*s−1] in this work (Eisenthal et al., 2007).
Determining enzyme kinetic key parameters gives solid information about the efficiency and efficacy of an enzyme and how certain mutations can impact its functionality. For the determination and comparison of the enzymatic performances, KM, Vmax and kcat as well as kcat/KM were calculated for the different hGCase variants, respectively (Eisenthal et al., 2007). The according assay was performed as described in section 2.5.5, all measured with the artificial substrate res-3-glc. KM and Vmax determination for representative mutant M53T/P55T was done applying the Michaelis-Menten curve fit (GraphPad Prism7; see equation 4) as shown in the following.
The kinetic raw data is depicted in FIG. 5 (A) with progression curves following pseudo first order in a linear measurement range with a good reproducibility and low variance. The slopes of the progression curves can be replotted, with velocities V [μM/min] plotted as a function of substrate concentration [S] applied, resulting in a typical course of a Michaelis-Menten curve (Cornish-Bowden, 2013; Johnson, 2015).

B1: R495HS2: hGCase based on the Cerezyme sequence (R495H) but produced in S2 cells, His8-tagged; Seq. Id. No. 1 (protein, listed as Homo sapiens)
chain: ARPCIPKSFGYSSVVCVCNATYCDSFDPPTFPALGTFSRYESTRSGRRMELSMGPIQANHTGTGLLLTLQPEQKFQKVKGFGGAMTDAAALNILALSPPAQNLLLKSYFSEEGIGYNIIRVPMASCDFSIRTYTYADTPDDFQLHNFSLPEEDTKLKIPLIHRALQLAQRPVSLLASPWTSPTWLKTNGAVNGKGSLKGQPGDIYHQTWARYFVKFLDAYAEHKLQFWAVTAENEPSAGLLSGYPFQCLGFTPEHQRDFIARDLGPTLANSTHHNVRLLMLDDQRLLLPHWAKVVLTDPEAAKYVHGIAVHWYLDFLAPAKATLGETHRLFPNTMLFASEACVGSKFWEQSVRLGSWDRGMQYSHSIITNLLYHVVGWTDWNLALNPEGGPNWVRNFVDSPIIVDITKDTFYKQPMFYHLGHFSKFIPEGSQRVGLVASQKNDLDAVALMHPDGSAVVVVLNRSSKDVPLTIKDPAVGFLETISPGYSIHTYLWHRQ
modifications: His8 tag
For the molecule B1, the “unfolding temperature Tm” value in data set [1] is 54.6 °C and 54.6 ± 0.0 °C. In data set [2], the catalytic constant (kcat) is 0.05 s⁻¹; the Michaelis-Menten constant (Km) was 189 ± 45.5 µM; the maximal velocity (Vmax) is 0.08 ± 0.01 µM/min and 0.08 µM/min.

B2: M53T/P55T: recombinant human β-glucocerebrosidase variant R495H/M53T/P55T, S2 cells; Seq. Id. No. 7 (protein, listed as Homo sapiens)
chain: ARPCIPKSFGYSSVVCVCNATYCDSFDPPTFPALGTFSRYESTRSGRRMELSTGTIQANHTGTGLLLTLQPEQKFQKVKGFGGAMTDAAALNILALSPPAQNLLLKSYFSEEGIGYNIIRVPMASCDFSIRTYTYADTPDDFQLHNFSLPEEDTKLKIPLIHRALQLAQRPVSLLASPWTSPTWLKTNGAVNGKGSLKGQPGDIYHQTWARYFVKFLDAYAEHKLQFWAVTAENEPSAGLLSGYPFQCLGFTPEHQRDFIARDLGPTLANSTHHNVRLLMLDDQRLLLPHWAKVVLTDPEAAKYVHGIAVHWYLDFLAPAKATLGETHRLFPNTMLFASEACVGSKFWEQSVRLGSWDRGMQYSHSIITNLLYHVVGWTDWNLALNPEGGPNWVRNFVDSPIIVDITKDTFYKQPMFYHLGHFSKFIPEGSQRVGLVASQKNDLDAVALMHPDGSAVVVVLNRSSKDVPLTIKDPAVGFLETISPGYSIHTYLWHRQ
notes: recombinant human β-glucocerebrosidase variant R495H/M53T/P55T, S2 cells; Id; No. 7
With B2, the “unfolding temperature Tm” value in data set [1] came out at 55.3 ± 0.1 °C. Besides, in data set [2], the turnover number (kcat) amounted to 0.09 s⁻¹; the Km came out at 100 ± 15.8 µM; the Vmax is 0.13 ± 0.01 µM/min and 0.13 µM/min.

B3: F31Y: recombinant human β-glucocerebrosidase variant R495H/F31Y, S2 cells; Seq. Id. No. 5 (protein, listed as Homo sapiens)
chain: ARPCIPKSFGYSSVVCVCNATYCDSFDPPTYPALGTFSRYESTRSGRRMELSMGPIQANHTGTGLLLTLQPEQKFQKVKGFGGAMTDAAALNILALSPPAQNLLLKSYFSEEGIGYNIIRVPMASCDFSIRTYTYADTPDDFQLHNFSLPEEDTKLKIPLIHRALQLAQRPVSLLASPWTSPTWLKTNGAVNGKGSLKGQPGDIYHQTWARYFVKFLDAYAEHKLQFWAVTAENEPSAGLLSGYPFQCLGFTPEHQRDFIARDLGPTLANSTHHNVRLLMLDDQRLLLPHWAKVVLTDPEAAKYVHGIAVHWYLDFLAPAKATLGETHRLFPNTMLFASEACVGSKFWEQSVRLGSWDRGMQYSHSIITNLLYHVVGWTDWNLALNPEGGPNWVRNFVDSPIIVDITKDTFYKQPMFYHLGHFSKFIPEGSQRVGLVASQKNDLDAVALMHPDGSAVVVVLNRSSKDVPLTIKDPAVGFLETISPGYSIHTYLWHRQ
notes: recombinant human β-glucocerebrosidase variant R495H/F31Y, S2 cells; Id; No. 5
B3: the “unfolding temperature Tm” value in data set [1] turned out to be 55.1 ± 0.1 °C. For the same molecule, in data set [2], the kcat was 0.07 s⁻¹, the Michaelis constant (Km) is 96.6 µM and the Vmax worked out at 0.11 µM/min.

B4: K321N: Amicus single mutant hGCase R495H/K321N produced in S2 cells; Seq. Id. No. 2 (protein, listed as Homo sapiens)
chain: ARPCIPKSFGYSSVVCVCNATYCDSFDPPTFPALGTFSRYESTRSGRRMELSMGPIQANHTGTGLLLTLQPEQKFQKVKGFGGAMTDAAALNILALSPPAQNLLLKSYFSEEGIGYNIIRVPMASCDFSIRTYTYADTPDDFQLHNFSLPEEDTKLKIPLIHRALQLAQRPVSLLASPWTSPTWLKTNGAVNGKGSLKGQPGDIYHQTWARYFVKFLDAYAEHKLQFWAVTAENEPSAGLLSGYPFQCLGFTPEHQRDFIARDLGPTLANSTHHNVRLLMLDDQRLLLPHWAKVVLTDPEAAKYVHGIAVHWYLDFLAPANATLGETHRLFPNTMLFASEACVGSKFWEQSVRLGSWDRGMQYSHSIITNLLYHVVGWTDWNLALNPEGGPNWVRNFVDSPIIVDITKDTFYKQPMFYHLGHFSKFIPEGSQRVGLVASQKNDLDAVALMHPDGSAVVVVLNRSSKDVPLTIKDPAVGFLETISPGYSIHTYLWHRQ
notes: Amicus single mutant hGCase R495H/K321N produced in S2 cells; Id; No. 2
Consider B4, for which the “unfolding temperature Tm” value in data set [1] is 56.2 ± 0.1 °C. In data set [2], the kcat was determined as 0.09 s⁻¹, the Km amounted to 131 µM and the Vmax was 0.14 µM/min.

B5: K321N/H145L: Amicus double mutant hGCase R495H/K321N/H145L produced in S2 cells; Seq. Id. No. 3 (protein, listed as Homo sapiens)
chain: ARPCIPKSFGYSSVVCVCNATYCDSFDPPTFPALGTFSRYESTRSGRRMELSMGPIQANHTGTGLLLTLQPEQKFQKVKGFGGAMTDAAALNILALSPPAQNLLLKSYFSEEGIGYNIIRVPMASCDFSIRTYTYADTPDDFQLLNFSLPEEDTKLKIPLIHRALQLAQRPVSLLASPWTSPTWLKTNGAVNGKGSLKGQPGDIYHQTWARYFVKFLDAYAEHKLQFWAVTAENEPSAGLLSGYPFQCLGFTPEHQRDFIARDLGPTLANSTHHNVRLLMLDDQRLLLPHWAKVVLTDPEAAKYVHGIAVHWYLDFLAPANATLGETHRLFPNTMLFASEACVGSKFWEQSVRLGSWDRGMQYSHSIITNLLYHVVGWTDWNLALNPEGGPNWVRNFVDSPIIVDITKDTFYKQPMFYHLGHFSKFIPEGSQRVGLVASQKNDLDAVALMHPDGSAVVVVLNRSSKDVPLTIKDPAVGFLETISPGYSIHTYLWHRQ
notes: Amicus double mutant hGCase R495H/K321N/H145L produced in S2 cells; Id; No. 3
In the case of B5, the “unfolding temperature Tm” value in data set [1] was 57.3 ± 0.0 °C. Also, in data set [2], the kcat was 0.09 s⁻¹; the Km is 158 µM and 156 µM; the Vmax is 0.13 µM/min.
